Data published in publication PMC4092016, “Molecular Characterization of the Na^+/H^+-Antiporter NhaA from Salmonella Typhimurium” (PLoS ONE, 2014).

Biological target: the molecule itself
Assay: SEC-MALS; SEC-MALLS with refractive index and UV280 monitoring; two coupled Superdex 200 5/15 columns; 10 mM MES pH 6, 150 mM NaCl, 0.03% β-DDM; 80 µg IMAC-purified STNhaA; protein conjugate analysis separating protein and detergent mass

B1: Na+/H+ antiporter NhaA from Salmonella enterica serovar Typhimurium LT2, recombinant with carboxy-terminal hexahistidine tag (natural protein)
chain: NLGILKHLHRFFSSDASGGIILIIAAALAMLMANMGATSGWYHDFLETPVQLRVGALEINKNMLLWINDALMAVFFLLIGLEVKRELMQGSLASLRQAAFPVIAAIGGMIVPALLYLAFNYSDPVTREGWAIPAATDIAFALGVLALLGSRVPLALKIFLMALAIIDDLGAIVIIALFYTSDLSIVSLGVAAFAIAVLALLNLCGVRRTGVYILVGAVLWTAVLKSGVHATLAGVIVGFFIPLKEKHGRSPAKRLEHVLHPWVAYLILPLFAFANAGVSLQGVTIDGLTSMLPLGIIAGLLIGKPLGISLFCWLALRFKLAHLPQGTTYQQIMAVGILCGIGFTMSIFIASLAFGNVDPELINWAKLGILIGSLLSAVVGYSWLRARLNAPA
notes: five residues that the expression construct adds at the amino-terminus; Na+/H+ antiporter NhaA, S. Typhimurium LT2, wild type; coding region (nhaA, STM0039) amplified from genomic DNA; calculated mass of the construct 44.01 kDa; Integral membrane protein, held in β-DDM detergent; also called STNhaA; STNhaA-His6; source: E. coli NM554 (pTTQ18A1-STNhaA-His6), membranes solubilized in β-DDM, …
stoichiometry N: 2
